According to patent publication US20160340442A1:

How the values were obtained:
MUC1 (human) [1] = target: MUC1 (human) (UniProt P15941); assay: surface staining, flow cytometry, K562 cells; 2 µg antibody/sample
MUC1 (human) [2] = target: MUC1 (human) (UniProt P15941); assay: surface staining, flow cytometry, U266 CTL-siRNA cells; 2 µg antibody/sample
MUC1 (human) [3] = target: MUC1 (human) (UniProt P15941); assay: surface staining, flow cytometry, ZR-75-1 cells (third row); 2 µg antibody/sample
MUC1 (human) [4] = target: MUC1 (human) (UniProt P15941); assay: surface staining, flow cytometry, KU812 CTL-siRNA cells; 2 µg antibody/sample
MUC1 (human) [5] = target: MUC1 (human) (UniProt P15941); assay: surface staining, flow cytometry, primary breast cancer patient cells RG563999 (second row); 2 µg antibody/sample
MUC1 (human) [6] = target: MUC1 (human) (UniProt P15941); assay: surface staining, flow cytometry, K562 MUC1-siRNA cells (MUC1 silenced); 2 µg antibody/sample
MUC1 (human) [7] = target: MUC1 (human) (UniProt P15941); assay: flow cytometry, K562/Con siRNA cells (MUC1-positive)
MUC1 (human) [8] = target: MUC1 (human) (UniProt P15941); assay: surface staining, flow cytometry, RPMI8266 cells; 2 µg antibody/sample
MUC1 (human) [9] = target: MUC1 (human) (UniProt P15941); assay: flow cytometry, KU812/Con siRNA cells (MUC1-Positive)
MUC1 (human) [10] = target: MUC1 (human) (UniProt P15941); assay: surface staining, flow cytometry, KU812 CML cells; 2 µg antibody/sample
MUC1 (human) [11] = target: MUC1 (human) (UniProt P15941); assay: surface staining, flow cytometry, KMS28PE cells; 2 µg antibody/sample
MUC1 (human) [12] = target: MUC1 (human) (UniProt P15941); assay: surface staining, flow cytometry, U266 CTL-siRNA cells (second block); 2 µg antibody/sample
MUC1 (human) [13] = target: MUC1 (human) (UniProt P15941); assay: surface staining, flow cytometry, MV4-11 cells; 2 µg antibody/sample
MUC1 (human) [14] = target: MUC1 (human) (UniProt P15941); assay: flow cytometry, KU812/MUC1siRNA cells (MUC1 silenced, labelled MUC1-negative)
MUC1 (human) [15] = target: MUC1 (human) (UniProt P15941); assay: surface staining, flow cytometry, ZR-75-1 cells (second row); 2 µg antibody/sample
MUC1 (human) [16] = target: MUC1 (human) (UniProt P15941); assay: surface staining, flow cytometry, primary breast cancer patient cells JB564765; 2 µg antibody/sample
MUC1 (human) [17] = target: MUC1 (human) (UniProt P15941); assay: flow cytometry, U266/Con siRNA cells (MUC1-positive)
MUC1 (human) [18] = target: MUC1 (human) (UniProt P15941); assay: surface staining, flow cytometry, U266 MUC1-siRNA cells (MUC1 silenced); 2 µg antibody/sample
MUC1 (human) [19] = target: MUC1 (human) (UniProt P15941); assay: flow cytometry, U266/MUC1siRNA cells (MUC1 silenced, labelled MUC1-negative)
MUC1 (human) [20] = target: MUC1 (human) (UniProt P15941); assay: surface staining, flow cytometry, ME559203 cells; 2 µg antibody/sample
MUC1 (human) [21] = target: MUC1 (human) (UniProt P15941); assay: surface staining, flow cytometry, KU812 MUC1-siRNA cells (MUC1 silenced); 2 µg antibody/sample
MUC1 (human) [22] = target: MUC1 (human) (UniProt P15941); assay: flow cytometry, K562/MUC1siRNA cells (MUC1 silenced, labelled MUC1-negative)
MUC1 (human) [23] = target: MUC1 (human) (UniProt P15941); assay: surface staining, flow cytometry, MOLM-14 cells; 2 µg antibody/sample, PE-conjugated goat anti-mouse 2nd antibody
MUC1 (human) [24] = target: MUC1 (human) (UniProt P15941); assay: surface staining, flow cytometry, KU812 cells; 2 µg antibody/sample
MUC1 (human) [25] = target: MUC1 (human) (UniProt P15941); assay: surface staining, flow cytometry, ZR-75-1 cells; 2 µg antibody/sample
MUC1 (human) [26] = target: MUC1 (human) (UniProt P15941); assay: surface staining, flow cytometry, K562 CTL-siRNA cells; 2 µg antibody/sample; fixed samples kept at 4° C. for 4 days
MUC1 (human) [27] = target: MUC1 (human) (UniProt P15941); assay: surface staining, flow cytometry, K562 CML cells; 2 µg antibody/sample
MUC1 (human) [28] = target: MUC1 (human) (UniProt P15941); assay: surface staining, flow cytometry, KU812 MUC1-siRNA cells (MUC1 silenced, second block); 2 µg antibody/sample
MUC1 (human) [29] = target: MUC1 (human) (UniProt P15941); assay: surface staining, flow cytometry, U266 cells; 2 µg antibody/sample
MUC1 (human) [30] = target: MUC1 (human) (UniProt P15941); assay: surface staining, flow cytometry, U266 MUC1-siRNA cells (MUC1 silenced, second block); 2 µg antibody/sample
MUC1 (human) [31] = target: MUC1 (human) (UniProt P15941); assay: surface staining, flow cytometry, KU812 CTL-siRNA cells (second block); 2 µg antibody/sample
MUC1 (human) [32] = target: MUC1 (human) (UniProt P15941); assay: surface staining, flow cytometry, primary breast cancer patient cells RG563999; 2 µg antibody/sample

Chain of MUC1 (human) (P15941 24-1255): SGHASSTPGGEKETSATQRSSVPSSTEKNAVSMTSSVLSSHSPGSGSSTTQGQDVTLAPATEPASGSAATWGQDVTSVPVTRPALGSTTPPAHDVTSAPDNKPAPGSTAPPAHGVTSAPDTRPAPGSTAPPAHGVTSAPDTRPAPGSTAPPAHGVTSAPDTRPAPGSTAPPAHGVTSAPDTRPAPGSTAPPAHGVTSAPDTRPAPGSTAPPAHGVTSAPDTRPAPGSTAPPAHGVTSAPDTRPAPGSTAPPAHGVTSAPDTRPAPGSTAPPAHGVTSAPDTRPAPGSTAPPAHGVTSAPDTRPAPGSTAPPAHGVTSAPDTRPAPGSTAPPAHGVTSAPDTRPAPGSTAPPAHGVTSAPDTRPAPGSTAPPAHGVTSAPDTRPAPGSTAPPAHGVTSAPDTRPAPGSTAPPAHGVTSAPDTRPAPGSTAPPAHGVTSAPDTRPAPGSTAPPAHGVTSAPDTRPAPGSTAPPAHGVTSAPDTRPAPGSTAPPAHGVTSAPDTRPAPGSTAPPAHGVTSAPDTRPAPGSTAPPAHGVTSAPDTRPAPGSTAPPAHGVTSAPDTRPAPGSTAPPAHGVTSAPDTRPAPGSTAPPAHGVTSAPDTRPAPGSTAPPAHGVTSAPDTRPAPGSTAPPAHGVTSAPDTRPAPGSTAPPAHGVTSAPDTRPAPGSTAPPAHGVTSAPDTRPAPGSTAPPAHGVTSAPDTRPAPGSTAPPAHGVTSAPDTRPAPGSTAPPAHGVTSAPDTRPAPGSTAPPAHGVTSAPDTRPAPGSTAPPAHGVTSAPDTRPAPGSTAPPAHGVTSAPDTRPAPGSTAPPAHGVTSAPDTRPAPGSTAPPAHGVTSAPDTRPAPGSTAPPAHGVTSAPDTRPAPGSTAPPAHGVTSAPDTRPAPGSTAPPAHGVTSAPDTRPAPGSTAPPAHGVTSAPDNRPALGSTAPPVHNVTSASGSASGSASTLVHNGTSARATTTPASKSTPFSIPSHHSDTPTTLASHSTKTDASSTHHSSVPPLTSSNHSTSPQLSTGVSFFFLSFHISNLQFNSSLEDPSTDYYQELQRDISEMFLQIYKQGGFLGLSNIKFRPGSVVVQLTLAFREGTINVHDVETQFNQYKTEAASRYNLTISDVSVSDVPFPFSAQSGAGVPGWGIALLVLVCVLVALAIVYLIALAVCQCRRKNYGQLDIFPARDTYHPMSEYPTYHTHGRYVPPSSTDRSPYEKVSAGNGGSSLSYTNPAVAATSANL

flow cytometry value (unit not given) (MUC1 (human) [1]): 78.8
flow cytometry value (unit not given) (MUC1 (human) [2]): 94.7
flow cytometry value (unit not given) (MUC1 (human) [3]): 89.5
flow cytometry value (unit not given) (MUC1 (human) [4]): 96.6
flow cytometry value (unit not given) (MUC1 (human) [5]): 11.9
flow cytometry value (unit not given) (MUC1 (human) [6]): 17.1
flow cytometry value (unit not given) (MUC1 (human) [7]): 40.6
flow cytometry value (unit not given) (MUC1 (human) [8]): 95
flow cytometry value (unit not given) (MUC1 (human) [9]): 95.2
flow cytometry value (unit not given) (MUC1 (human) [10]): 90.5
flow cytometry value (unit not given) (MUC1 (human) [11]): 58.2
flow cytometry value (unit not given) (MUC1 (human) [12]): 96.5
flow cytometry value (unit not given) (MUC1 (human) [13]): 74.2
flow cytometry value (unit not given) (MUC1 (human) [14]): 35.4
flow cytometry value (unit not given) (MUC1 (human) [15]): 6.84
flow cytometry value (unit not given) (MUC1 (human) [16]): 21.1
flow cytometry value (unit not given) (MUC1 (human) [17]): 94.7
flow cytometry value (unit not given) (MUC1 (human) [18]): 16.2
flow cytometry value (unit not given) (MUC1 (human) [19]): 13.5
flow cytometry value (unit not given) (MUC1 (human) [20]): 57
flow cytometry value (unit not given) (MUC1 (human) [21]): 69.2
flow cytometry value (unit not given) (MUC1 (human) [22]): 17.1
flow cytometry value (unit not given) (MUC1 (human) [23]): 99.5
flow cytometry value (unit not given) (MUC1 (human) [24]): 98.1
flow cytometry value (unit not given) (MUC1 (human) [25]): 98.5
flow cytometry value (unit not given) (MUC1 (human) [26]): 40.6
flow cytometry value (unit not given) (MUC1 (human) [27]): 77.9
flow cytometry value (unit not given) (MUC1 (human) [28]): 85.4
flow cytometry value (unit not given) (MUC1 (human) [29]): 99.2
flow cytometry value (unit not given) (MUC1 (human) [30]): 13.5
flow cytometry value (unit not given) (MUC1 (human) [31]): 95.2
flow cytometry value (unit not given) (MUC1 (human) [32]): 60.5
Substance: DF3 (antibody)
